Source: paper PMC5477135, “Imaging of αvβ3 integrin expression in experimental myocardial ischemia with [^68Ga]NODAGA-RGD positron emission tomography” (Journal of Translational Medicine, 2017)
Marks after values point to notes of the source that are not given here.

Assays:
αvβ3 integrin [1] = conditions: pig, in vivo
Description: Subsequently, the pigs were euthanized and their hearts were excised. Based on 1% 2,3,5-triphenyltetrazolium chloride (TTC) (Sigma-Aldrich, Saint Louis, MO, USA) staining, tissue samples were obtained from the injured ischemic (TTC negative) and adjacent viable ischemic (TTC positive) myocardium as well as from the remote non-ischemic myocardium. Autoradiography of myocardial tissue sections was used to compare [^68Ga]NODAGA-RGD uptake with the histology, αvβ3 integrin expression and CD31 on endothelial cells. Immediately after the PET scanning, the animals were sacrificed by an i.v. injection of potassium chloride (B. Braun Medical Oy, Helsinki, Finland). The heart was excised, the LV was cut into 4 short axis slices from base to apex that were incubated for 15 min in 1% TTC (Sigma-Aldrich, Saint Louis, MO, USA), diluted in phosphate-buffered saline (pH 7.4) at 37 °C, photographed from both sides and the presence of non-viable ischemic area was confirmed visually. Based on the TTC staining, transmural samples containing non-viable and immediately adjacent viable myocardium were collected from the LV wall corresponding to the ischemic area in PET images. Another sample was obtained from the posterior LV wall representative of the remote region (segment number 11). Myocardial samples and a blood sample were weighed and measured for radioactivity using the gamma counter (Wizard). The radioactivity concentration was expressed as standardized uptake values (SUV = ([tissue radioactivity/tissue weight]/[total given radioactivity/animal body weight])).

in vivo [2] = conditions: pig, iv, total radioactivity
Method: During the [^68Ga]NODAGA-RGD PET imaging, blood samples (2 ml) were obtained into heparinized tubes from the femoral artery 2, 5, 10, 20, 30, 40, 50 and 60 min after the injection of [^68Ga]NODAGA-RGD for the measurements of total radioactivity, radiometabolites (proportion of authentic tracer), and plasma-to-blood ratio. The radioactivities of whole blood and blood plasma were measured using a gamma counter (1480 Wizard 3″; PerkinElmer, Turku, Finland).

in vitro = in vitro ADME; conditions: plasma
Method: To evaluate species-dependent differences, the [^68Ga]NODAGA-RGD binding to human, pig and rat plasma proteins was measured using in vitro assay as described previously.

in vivo [3] = conditions: Finnish landrace, pig, iv, total radioactivity
Method: (§1) Coronary stenosis was created in 11 domestic, 3-month old pigs weighing 30–35 kg by implanting a bottleneck stent in the proximal LAD coronary artery as described previously. In addition, a sham group of 4 pigs underwent a catheterization procedure without the stent implantation. Myocardial [^68Ga]NODAGA-RGD uptake was evaluated by PET 13 ± 4 days after the stent implantation. […] Three pigs without a perfusion defect during adenosine stress were considered as procedural failures and excluded from further in vivo analyses.
(§2) Then a [^68Ga]NODAGA-RGD PET was performed with an ECAT EXACT HR+ scanner (Siemens-CTI, Knoxville, TN, USA). The studies were started with a 10 min transmission scan. The dynamic scanning started at the same time as 310 ± 43 MBq (230–400 MBq) of [^68Ga]NODAGA-RGD was injected via the ear vein. The acquisition time frames were as follows: 18 × 10 s, 4 × 30 s, 2 × 120 s, 1 × 180 s, 4 × 300 s, 3 × 600 s (total duration 62 min). The acquired [^68Ga]NODAGA-RGD PET data were corrected for scatter, random counts, and dead time and iteratively reconstructed with ordered-subsets expectation maximization (OSEM) algorithm using 2 iterations and 32 subsets. The whole transaxial field of view (70 cm) was reconstructed in 256 × 256 matrix yielding to pixel size of 2.57 mm × 2.57 mm. The device produces 63 axial planes with a slice thickness of 2.43 mm.
(§3) For quantification of [^68Ga]NODAGA-RGD uptake in the myocardium, the [^15O]water images and the [^68Ga]NODAGA-RGD images were co-registered using the high blood pool activity of the [^68Ga]NODAGA-RGD as a landmark (Fig. 1). The myocardial contours from the [^15O]water images were copied to the co-registered [^68Ga]NODAGA-RGD data. Then, the polar maps of [^68Ga]NODAGA-RGD uptake expressed as standardized uptake value (SUV) (time frame 52–62 min after injection) in the LV myocardium were generated using matching image orientation and sampling points. The region of interest (ROI) defining the ischemic area was copied from the [^15O]water polar maps to measure [^68Ga]NODAGA-RGD uptake in this region. The septum was excluded from the measurements to prevent spillover from the blood in the right ventricle. The mean and maximum SUVs were determined from the ischemic area. In order to measure the SUVs, ROI was modified to include only the mid-myocardium in order to avoid spill-over from blood. The maximum SUV within the ROI was determined from area showing visually the highest uptake. One segment in the posterolateral wall (segment 11) that was always outside the ischemic area was used to measure [^68Ga]NODAGA-RGD uptake in the remote myocardium. The ischemic-to-remote SUV ratio was calculated in the ischemic area and remote myocardium.

αvβ3 integrin [4] = assay: in vivo; conditions: pig
Method: as §1, §2, §3

αvβ3 integrin [5] = conditions: pig, in vivo; remark: listed apart in the source
Description: Subsequently, the pigs were euthanized and their hearts were excised. Based on 1% 2,3,5-triphenyltetrazolium chloride (TTC) (Sigma-Aldrich, Saint Louis, MO, USA) staining, tissue samples were obtained from the injured ischemic (TTC negative) and adjacent viable ischemic (TTC positive) myocardium as well as from the remote non-ischemic myocardium. Autoradiography of myocardial tissue sections was used to compare [^68Ga]NODAGA-RGD uptake with the histology, αvβ3 integrin expression and CD31 on endothelial cells. Tissue samples were frozen in isopentane mixed with dry ice and cut into serial 40 and 7 µm sections for autoradiography and immunohistochemical stainings respectively, using a cryomicrotome. Tissue sections of 40 μm thickness were immediately exposed on a phosphor imaging plate (BAS-TR2025, Fuji Photo Film Co. Ltd., Tokyo, Japan) for 2 h. The distribution of radioactivity on the plate was visualized and quantified using a Fluorescent Image Analyzer (Fujifilm FLA-5100, Fuji Photo Film Co. Ltd., Tokyo, Japan). Autoradiographs and hematoxylin & eosin (HE) staining images of the same sections were co-registered and [^68Ga]NODAGA-RGD accumulation was measured by drawing ROIs covering remote myocardium, and either viable or injured ischemic myocardium using TINA™ 2.10f software (Raytest Isotopenmessgeräte GmbH., Straubenhardt, Germany). Results were expressed as photostimulated luminescence per square millimetre (PSL/mm^2) and normalized for the injected radioactivity dose, animal weight and the radioactivity decay. Serial tissue sections of 7 μm were stained with H&E for general histology, Masson’s trichrome for differentiation myocytes and collagenous scar, and immunohistochemistry with antibodies against of CD31 on endothelial cells (dilution 1:250, Thermo Scientific, Cheshire, UK), αvβ3 integrin (dilution 1:200, Millipore, Temecula, CA, USA) and α-smooth muscle actin on myofibroblasts (dilution 1:30,000, Sigma-Aldrich, St. Louis, MO, USA). […]

In the case of `N=C(N)NCCC[C@@H]1NC(=O)[C@H](CCCCNC(=O)CCC(C(=O)O)N2CCN(CC(=O)O)CCN(CC(=O)O)CC2)NC(=O)[C@@H](Cc2ccc(O)cc2)NC(=O)[C@H](CC(=O)O)NC(=O)CNC1=O` (stereo partly shown) [[^68Ga]NODAGA-RGD, metal not drawn], the “radioactivity in tissue sample from injured myocardium (SUV)” value (αvβ3 integrin [1]) is reported as 0.79 ± 0.21 SUV, the “radioactivity in tissue sample from remote myocardium (SUV)” value (αvβ3 integrin [1]) is reported as 0.49 ± 0.21 SUV and the “radioactivity in tissue sample from viable ischemic myocardium (SUV)” value (αvβ3 integrin [1]) is reported as 0.49 ± 0.17 SUV. The tissue to tissue ratio (in vivo [2]) was 1.4 ± 0.1, the fraction unbound (in vitro; pig) was 0.93 ± 0.017 and the fraction unbound (in vitro; rat) was 0.94 ± 0.011. For the same compound, the SUV (in vivo [3]) was 1.3 ± 0.2 SUV, the “average myocardial uptake in the ischemic area higher than in the remote myocardium” value (αvβ3 integrin [4]) was 26% and the “average uptake in the LV myocardium (SUV)” value (αvβ3 integrin [4]) was 0.42 ± 0.10 SUV. For the same compound, the “uptake in anteroseptal wall (segments 7 and 13) (SUV)” value (αvβ3 integrin [4]) was 0.39 ± 0.11 SUV, the “uptake in posterolateral wall (segment 11) (SUV)” value (αvβ3 integrin [4]) was 0.36 ± 0.078 SUV and the “Injured area SUVMax” value (αvβ3 integrin [4]; iv) was 0.80 ^† SUV. For the same compound, the “Ischemic area SUVMean” value (αvβ3 integrin [4]; iv) was 0.61* SUV, the “mean uptake by autoradiography, injured area” value (αvβ3 integrin [5]) was 4.6 ± 2.1 PSL/mm^2 and the “mean uptake by autoradiography, remote area” value (αvβ3 integrin [5]) was 1.8 ± 0.61 PSL/mm^2. For the same compound, the “mean uptake by autoradiography, viable ischemic area” value (αvβ3 integrin [5]) was 2.2 ± 0.85 PSL/mm^2.
